Test results from paper PMC4500961, “H2O2 production rate in Lactobacillus johnsonii is modulated via the interplay of a heterodimeric flavin oxidoreductase with a soluble 28 Kd PAS domain containing protein” (Frontiers in Microbiology, 2015).

Assays:
FRedA/B = target: T1, FRedA/B (Lactobacillus johnsonii, UniProt A0A7D9N7Z8+A0A7D9N811); assay: isothermal titration calorimetry; format: binding
T1 construct: gene T285_08435; full-length, both chains N-terminal His6, co-expressed and co-purified from E. coli BL21 (p15TV-fredA + pCDF-his-fredB); heterodimer 43 kDa
Source text: isothermal titration calorimetry on FRedA/B | FMN binding to the FRedA/B heterodimer is an exergonic reaction

[1] = target: FRedB fused to the zinc finger DNA-binding domain of murine Zif268 (pACTR-fredB) (Lactobacillus johnsonii N6.2); assay: two-hybrid; bacterial two-hybrid in E. coli KDZifΔZ (ω subunit fusion and Zif268 fusion), 10 μM IPTG, β-galactosidase activity with CPRG in arbitrary units; static or aerobic growth
[2] = target: His6-FRedB (putative FMN reductase FRedB of Lactobacillus johnsonii N6.2, from p15TV-fredB, individually purified) (Lactobacillus johnsonii N6.2)
purified protein [3] = substrate: Cc1cc2nc3c(=O)[nH]c(=O)nc-3n(C[C@H](O)[C@H](O)[C@H](O)COP(=O)(O)O)c2cc1C; assay: purified protein; format: biochemical, Lactobacillus johnsonii; conditions: fixed NADH, 100 mM MES pH 5.5, 37 °C
purified protein [4] = substrate: Cc1cc2nc3c(=O)[nH]c(=O)nc-3n(C[C@H](O)[C@H](O)[C@H](O)COP(=O)(O)OP(=O)(O)OC[C@H]3O[C@@H](n4cnc5c(N)ncnc54)[C@H](O)[C@@H]3O)c2cc1C; assay: purified protein; format: biochemical, Lactobacillus johnsonii; conditions: fixed NADH, 100 mM MES pH 5.5, 37 °C
purified protein [5] = substrate: NC(=O)C1=CN([C@@H]2O[C@H](COP(=O)(O)OP(=O)(O)OC[C@H]3O[C@@H](n4cnc5c(N)ncnc54)[C@H](O)[C@@H]3O)[C@@H](O)[C@H]2O)C=CC1; assay: purified protein; format: biochemical, Lactobacillus johnsonii; conditions: fixed flavin electron acceptor, 100 mM MES pH 5.5, 37 °C

Q: Which Kd (FRedA/B) does the source give for `Cc1cc2nc3c(=O)[nH]c(=O)nc-3n(C[C@H](O)[C@H](O)[C@H](O)COP(=O)(O)O)c2cc1C` [FMN] here?
A: The Kd was 1960 ± 130 nM.

Q: “FRedA fused to the ω subunit of E. coli RNA polymerase (pBR-fredA) (natural protein)” was tested. Which β-galactosidase activity [1] did it give?
A: Its β-galactosidase activity is 11700 AU.

Q: How did the initial rate (V0) of NADH oxidase activity, FRedB preincubated with purified LjPAS (reduced by 50%) (μmol min^-1 mg^-1) [2] turn out when “His6-FRedA (putative FMN reductase FRedA of Lactobacillus johnsonii N6.2, from p15TV-fredA) (natural protein)” was run?
A: The initial rate (V0) of NADH oxidase activity, FRedB preincubated with purified LjPAS (reduced by 50%) (μmol min^-1 mg^-1) was 2.6.

Q: And the initial rate (Vo) of NADH oxidase activity, both monomers combined and incubated with FMN before addition of NADH (μmol min^-1 mg^-1) [2]?
A: The initial rate (Vo) of NADH oxidase activity, both monomers combined and incubated with FMN before addition of NADH (μmol min^-1 mg^-1) was 31.3.

Q: And the initial rate of NADH oxidase activity, FRedA preincubated with FMN before addition of FRedB (μmol min^-1 mg^-1) [2]?
A: The initial rate of NADH oxidase activity, FRedA preincubated with FMN before addition of FRedB (μmol min^-1 mg^-1) was 0.27.

Q: And the initial rate of NADH oxidase activity, FRedB preincubated with FMN before addition of FRedA (μmol min^-1 mg^-1) [2]?
A: The initial rate of NADH oxidase activity, FRedB preincubated with FMN before addition of FRedA (μmol min^-1 mg^-1) was 6.48.

Q: And the initial rate of NADH oxidase activity, purified LjPAS added after FRedA and FRedB were preincubated with FMN (not significantly slower) (μmol min^-1 mg^-1) [2]?
A: The initial rate of NADH oxidase activity, purified LjPAS added after FRedA and FRedB were preincubated with FMN (not significantly slower) (μmol min^-1 mg^-1) was 25.2.

B1: FRedA/B (Lactobacillus johnsonii N6.2) (protein)
chain 1: MKLLAIVGTNADFSYNRFLDQFMAKRYKDQAEIEVYEIADLPRFKKEAQPDSKVEEFKNKIREADGVIFATPEYDHGIPSALKSAMEWTGSHAQGNADVMKMKPAMVLGTSYGIQGASRAQEEMREILLSPDQSANVLPGNEVLIGHAADKFDKNTGDLLDQETIHAIDLAFNNFVKFVEQAQK
chain 2: MKLFAIVGSNADHSYNRDLLNFIKKHFTDRYDIELGEVKDLPMFKEGVKEPAAVASFAKKVADADAVLISTPEQQHSVPSSLKSALEWLSSAEHPFKDKPVVIVGTSVLPQGSARGQSHLKLVLSSPGFGAKVFNGDEFMMGTAPEQFDENGNLPAGTVKFLDHFFDEFDSFYAEVSK
notes: full-length, both chains N-terminal His6, co-expressed and co-purified from E. coli BL21 (p15TV-fredA + pCDF-his-fredB); heterodimer 43 kDa
Q: With B1 as the molecule, how does the Km (purified protein [3]) read?
A: Its Km is 20.36 ± 2.6 µM.

Q: And the Vmax (purified protein [3])?
A: Its Vmax is 204 µmol/min/mg.

Q: And the kcat (purified protein [3])?
A: Its kcat is 146 s⁻¹.

Q: And the kcat/Km (purified protein [3])?
A: The kcat/Km was 7.16e+06 M⁻¹ s⁻¹.

Q: And the Km (purified protein [4])?
A: The Km was 19.85 ± 2.5 µM.

Q: What about the Vmax (purified protein [4]) of the same molecule?
A: The Vmax was 67 µmol/min/mg.

Q: What about the kcat (purified protein [4]) of the same molecule?
A: Its kcat is 48 s⁻¹.

Q: What about the kcat/Km (purified protein [4]) of the same molecule?
A: Its kcat/Km is 2.42e+06 M⁻¹ s⁻¹.

Q: And the Km (purified protein [5])?
A: Its Km is 59.68 ± 5.8 µM.

Q: And the Vmax (purified protein [5])?
A: The Vmax was 185 µmol/min/mg.

Q: And the kcat (purified protein [5])?
A: Its kcat is 132 s⁻¹.

Q: What about the kcat/Km (purified protein [5]) of the same molecule?
A: The kcat/Km was 2.22e+06 M⁻¹ s⁻¹.
